Assay results taken from article PMC3947097 (Nature, 2013).

Experiments:
[1] = molecular target: ACP (Escherichia coli) (UniProt P0A6A8); conditions: cited from earlier work
[2] = molecular target: T1, His6-LpxD (wild-type E. coli LpxD acyltransferase) (E. coli, UniProt P21645 3-341); experiment: crystal structure
T1 sequence: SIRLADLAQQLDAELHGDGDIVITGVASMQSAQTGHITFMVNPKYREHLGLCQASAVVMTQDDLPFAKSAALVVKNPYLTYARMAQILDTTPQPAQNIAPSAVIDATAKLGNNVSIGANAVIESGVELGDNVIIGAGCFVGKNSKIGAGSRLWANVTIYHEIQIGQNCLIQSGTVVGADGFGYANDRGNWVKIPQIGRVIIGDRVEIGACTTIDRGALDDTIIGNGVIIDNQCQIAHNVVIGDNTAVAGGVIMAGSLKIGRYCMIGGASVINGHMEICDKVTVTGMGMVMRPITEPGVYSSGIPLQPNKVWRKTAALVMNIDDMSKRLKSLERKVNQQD

[3] = molecular target: T2, His239Ala His6-LpxD (catalytically inactive) (E. coli, UniProt P21645 3-341, His239Ala); experiment: crystal structure
T2 sequence: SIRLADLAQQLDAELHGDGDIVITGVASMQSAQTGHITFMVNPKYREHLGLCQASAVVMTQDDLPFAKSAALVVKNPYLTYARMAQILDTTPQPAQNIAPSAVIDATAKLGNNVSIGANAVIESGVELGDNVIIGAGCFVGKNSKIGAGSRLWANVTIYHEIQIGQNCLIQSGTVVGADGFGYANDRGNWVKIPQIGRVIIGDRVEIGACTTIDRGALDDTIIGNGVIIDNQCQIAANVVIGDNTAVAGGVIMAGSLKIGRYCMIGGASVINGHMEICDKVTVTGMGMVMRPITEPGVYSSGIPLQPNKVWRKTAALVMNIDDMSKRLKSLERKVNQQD

LpxD (from UniProt P21645)
Kd [1]: 0.059 µM

B1: holo-ACP (E. coli acyl-carrier-protein with 4'-phosphopantetheine) (natural protein)
chain: SHMSTIEERVKKIIGEQLGVKQEEVTNNASFVEDLGADSLDTVELVMALEEEFDTEIPDEEAEKITTVQAAIDYINGHQA
modifications: 4'-phosphopantetheine (4'-PPT) attached to Ser36, free terminal thiol
binding result [2]: binds

B2: R-3-hydroxymyristoyl-ACP (intact-acyl-ACP) (natural protein, E. coli)
chain: SHMSTIEERVKKIIGEQLGVKQEEVTNNASFVEDLGADSLDTVELVMALEEEFDTEIPDEEAEKITTVQAAIDYINGHQA
modifications: 4'-phosphopantetheine attached to Ser36, carrying R-3-hydroxymyristoyl (β-OH-C14) in thioester linkage
stoichiometry N [3]: 3 ACP per LpxD trimer
